Source: publication doi:10.1101/317677

Molecular target: T1, Lon (wildtype) (UniProt P0CAW0 1-799)
T1 sequence: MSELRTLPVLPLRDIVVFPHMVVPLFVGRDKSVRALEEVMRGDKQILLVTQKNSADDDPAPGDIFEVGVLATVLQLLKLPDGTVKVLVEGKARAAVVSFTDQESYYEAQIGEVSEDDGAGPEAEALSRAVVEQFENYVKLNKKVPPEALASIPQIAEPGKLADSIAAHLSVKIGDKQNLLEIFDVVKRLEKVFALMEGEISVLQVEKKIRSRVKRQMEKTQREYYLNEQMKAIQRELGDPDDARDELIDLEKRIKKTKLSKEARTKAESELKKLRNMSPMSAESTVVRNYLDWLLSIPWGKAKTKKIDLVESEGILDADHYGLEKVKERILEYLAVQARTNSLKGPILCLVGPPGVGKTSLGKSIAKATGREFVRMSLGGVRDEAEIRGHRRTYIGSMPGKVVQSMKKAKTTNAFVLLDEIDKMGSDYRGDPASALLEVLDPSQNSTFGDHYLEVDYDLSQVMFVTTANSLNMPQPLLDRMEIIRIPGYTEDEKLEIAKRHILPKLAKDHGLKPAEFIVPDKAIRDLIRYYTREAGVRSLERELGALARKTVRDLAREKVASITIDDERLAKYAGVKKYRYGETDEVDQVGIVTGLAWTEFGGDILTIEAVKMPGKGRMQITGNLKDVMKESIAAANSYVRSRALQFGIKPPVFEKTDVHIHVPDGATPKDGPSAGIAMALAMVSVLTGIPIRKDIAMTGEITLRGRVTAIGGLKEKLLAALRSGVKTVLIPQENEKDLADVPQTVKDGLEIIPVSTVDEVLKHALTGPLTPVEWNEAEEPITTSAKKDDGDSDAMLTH
Test: fluorescence polarization

AACGGATGATCCACAGGAGAGTCTGGCGCAGGGCGAGAG (ssDNA) [FAM-DNA oligo]
Kd: 286 nM
